According to paper PMC10178974:

Assays:
Assay in all cases: BLI
[1] = tested on: Influenza A virus virions (hemagglutinin is the stated target of RHA0385) (Influenza A virus H7N1); conditions: BLI: PBS pH 7.4 ([…]; temperature not stated
[2] = tested on: Respiratory syncytial virus virions (surface protein not named) (Respiratory syncytial virus A2); conditions: BLI: PBS pH 7.4 (8 mM Na2HPO4, 1.5 mM KH2PO4, 140 mM NaCl, 10 mM KCl), 0.01% Tween-20, 0.1 mg/mL BSA; biotin-aptamer on streptavidin sensor; virus as analyte …
[3] = target: SARS-CoV-2 virions (S protein RBD is the stated target of RBD-1C) (SARS-CoV-2) (UniProt P0DTC2); conditions: BLI: PBS pH 7.4 ([…]; temperature not stated
[4] = tested on: Adenovirus type 5 virions (surface protein not named) (Human adenovirus 5?); conditions: BLI: PBS pH 7.4 (8 mM Na2HPO4, 1.5 mM KH2PO4, 140 mM NaCl, 10 mM KCl), 0.01% Tween-20, 0.1 mg/mL BSA; biotin-aptamer on streptavidin sensor; virus as analyte …

| Sequence | Kd [1] | Kd [2] | Kd [3] | Kd [4] |
| --- | --- | --- | --- | --- |
| AGTGCGGTGAGCCGTCGGACATACAAATAC [Biotin-H8] | 3.5 pM | 0.031 pM | – | – |
| CAGCACCGACCTTGTGCTTTGGGAGTGCTGGTCCAAGGGCGTTAATGGACA [Biotin-RBD-1C] | – | – | 0.071 pM | – |
| GTGCCAGCTATGCCATTGGCGGGTCGTCCAATTCGAGAGGTCCCCTAGCGTCTATCTCTGCTGC [Biotin-ADV-20] | 2.6 pM | 0.38 pM | 50 pM | 0.011 pM |
| TTGGGGTTATTTTGGGAGGGCGGGGGTT [Biotin-RHA0386 (RHA0385 in text)] | 0.021 pM | – | – | – |
